Key:
human CD3 on human PBMC = target: T1, human CD3 on human PBMC (human, UniProt P07766 23-207); assay: flow cytometry on human PBMC, Penta-His Alexa Fluor 488 detection (rMFI)
T1 construct: Native CD3 complex on T cells in PBMC; the other chains of the complex are native; also called human CD3 (PBMC)
Method: Commercially available human PBMC (Cellular Technology Ltd. (CTL)) was adjusted to an appropriate concentration with PBS containing 5% FBS. LIVE/DEAD Fixable Near-IR Dead Cell Stain Kit (Thermo Fisher Scientific Inc.) and an anti-CD19 antibody (Beckman Coulter Inc.) were added to the cells, which were then left standing at 4° C. for 30 minutes. The cells were washed twice with PBS containing 5% FBS, then adjusted to a concentration of 1×10⁶ cells/mL with PBS containing 5% FBS, added at a concentration of 100 μL/well to a 96-well U-bottomed microplate, and centrifuged to remove a supernatant. […] The cells were washed twice with PBS containing 5% FBS. Then, Penta-His Alexa Fluor 488 (Qiagen N.V.) diluted with PBS containing 5% FBS was added at a concentration of 30 μL/well, and the plate was left standing at 4° C. for 30 minutes. The cells were washed twice with PBS containing 5% FBS and then resuspended in PBS containing 5% FBS, followed by detection using a flow cytometer (FACSCanto™ II; Becton, Dickinson and Company). The data was analyzed using Flowjo (Tree Star Inc.). The mean fluorescence intensity (MFI) of Alexa Fluor 488 in a fraction free of dead cells and CD19-positive cells was calculated. The MFI value of the scFv-unsupplemented sample was subtracted from the MFI value of the scFv-supplemented sample to calculate a relative value of MFI (rMFI).

[1] = target: T2, CD3 immobilized on a sensor chip (Example 7)-1-2); assay: SPR (BIAcore T-200), CD3 immobilized, scFv injected at five concentrations; concentration giving 1/2 Rmax
T2 construct: the text says only 'CD3 immobilized on a sensor chip'; also called human CD3
Method: Five different concentrations of the scFv were injected into CD3 immobilized on a sensor chip. Rmax was estimated from the resulting response, and the antibody concentration that reached 1/2 thereof was defined as the dissociation constant of the scFv for CD3.

[2] = target: T3, cynomolgus monkey CD3 on cynomolgus monkey PBMC or T cell line HSC-F (cynomolgus monkey, UniProt Q95LI5 22-198); assay: flow cytometry on cynomolgus monkey PBMC
T3 construct: whole, on cells; Native CD3 complex on monkey T cells; also called cynomolgus monkey CD3 (PBMC); cynomolgus monkey CD3 antigen
T3 sequence (Q95LI5 22-198): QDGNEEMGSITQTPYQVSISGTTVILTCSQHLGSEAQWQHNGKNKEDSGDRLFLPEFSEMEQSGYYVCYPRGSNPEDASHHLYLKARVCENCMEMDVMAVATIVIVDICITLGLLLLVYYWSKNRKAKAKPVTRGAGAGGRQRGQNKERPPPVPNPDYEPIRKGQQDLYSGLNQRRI

[3] = target: T4, human CD3εγ single-chain antigen (human); assay: complex mixed at a molar ratio of 1:2, purified by gel filtration and crystallized
T4 construct: also called scCD3εγ; His-scCD3 antigen
T4 chain: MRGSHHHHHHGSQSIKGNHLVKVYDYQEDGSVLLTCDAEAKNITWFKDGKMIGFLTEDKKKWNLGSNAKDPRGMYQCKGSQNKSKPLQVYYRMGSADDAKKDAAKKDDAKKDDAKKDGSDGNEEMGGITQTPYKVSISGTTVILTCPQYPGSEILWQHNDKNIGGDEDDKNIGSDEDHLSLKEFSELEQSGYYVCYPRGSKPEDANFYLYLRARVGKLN
Method: The buffer solution was replaced with 10 mM Tris HCl (pH 7.5) and 50 mM NaCl using Amicon Ultra 15 MWCO 10K (Merck Millipore), and the resulting solution was concentrated to 3.5 mg/mL. This concentrate was purified by gel filtration chromatography using Superdex 200 10/300GL (GE Healthcare Bio-Sciences Corp.). A fraction of the complex was concentrated into approximately 4.0 mg/mL using Amicon Ultra 15 MWCO 10K (Millipore).
To 0.5 μL of the protein solution, an equal amount of a precipitant solution (0.1 M MES monohydrate (pH 6.5), 1.6 M ammonium sulfate, and 10% v/v 1,4-dioxane) was added, and the resulting solution was placed in a sealed container containing 0.05 mL of a precipitant solution so that the solutions had no contact with each other. The container was left standing at 25° C. One month later, 0.1 mm×0.05 mm×0.05 mm rod-like crystals were obtained.

B1: C3E-7034 (humanized anti-CD3 scFv) (scFv)
scFv: GEVQLVESGGGLVQPGGSLRLSCAASGVTFNYYGMSWIRQAPGKGLEWVASITNSGGRIYYPDSVKGRFTISRENTQKTLYLQMNSLRAEDTAVYYCTLDGRDGWVAYWGQGTLVTVSSGGGGSGGGGSGGGGSNFMLTQPHSVSESPGKTVTISCKRNTGNIGSNYVNWYQQHEGSSPTTIIYRDDKRPDGVSDRFSGSIDRSSKSASLTISNLKTEDEADYFCQSYSSGFIFGGGTKLTVLGAAAGAGGDYKDDDDKGAAAHHHHHH
binding result (human CD3 on human PBMC): binds
Kd [1]: 4.5 nM
binding result [2]: binds
binding result [3]: binds

Reference: patent US20190359712A1 (Daiichi Sankyo, published 2019)
